Test results published in the supplement of paper PMC11246515.
± gives the standard deviation of the averaged measurements.

Experiment: total protein half-life in vivo (active degradation + dilution); higher = more stable protein
[1] = E. coli NCM3722 delta-clpP delta-lon delta-hslV, growth: N-lim chemostat, doubling time 6 h
[2] = E. coli NCM3722 delta-clpP, growth: N-lim chemostat, doubling time 6 h
[3] = E. coli NCM3722 delta-hslV, growth: N-lim chemostat, doubling time 6 h
[4] = E. coli NCM3722 delta-smpB, growth: N-lim chemostat, doubling time 6 h
[5] = wild type E. coli NCM3722, growth: C-lim chemostat, doubling time 3 h
[6] = wild type E. coli NCM3722, growth: C-lim chemostat, doubling time 6 h
[7] = wild type E. coli NCM3722, growth: C-lim chemostat, doubling time 12 h
[8] = wild type E. coli NCM3722, growth: N-lim chemostat, doubling time 12 h
[9] = wild type E. coli NCM3722, growth: P-lim chemostat, doubling time 12 h
[10] = E. coli NCM3722 delta-lon, growth: N-lim chemostat, doubling time 6 h
[11] = wild type E. coli NCM3722, growth: N-lim chemostat, doubling time 6 h
[12] = wild type E. coli NCM3722, growth: P-lim chemostat, doubling time 6 h

Sequence	total protein half-life in vivo [1] [h]	total protein half-life in vivo [2] [h]	total protein half-life in vivo [3] [h]	total protein half-life in vivo [4] [h]	total protein half-life in vivo [5] [h]	total protein half-life in vivo [6] [h]	total protein half-life in vivo [7] [h]	total protein half-life in vivo [8] [h]	total protein half-life in vivo [9] [h]	total protein half-life in vivo [10] [h]	total protein half-life in vivo [11] [h]	total protein half-life in vivo [12] [h]
MAIPKLQAYALPESHDIPQNKVDWAFEPQRAALLIHDMQDYFVSFWGENCPMMEQVIANIAALRDYCKQHNIPVYYTAQPKEQSDEDRALLNDMWGPGLTRSPEQQKVVDRLTPDADDTVLVKWRYSAFHRSPLEQMLKESGRNQLIITGVYAHIGCMTTATDAFMRDIKPFMVADALADFSRDEHLMSLKYVAGRSGRVVMTEELLPAPIPASKAALREVILPLLDESDEPFDDDNLIDYGLDSVRMMALAARWRKVHGDIDFVMLAKNPTIDAWWKLLSREVK [P0ADI4]	6.06 ± 2.3	2.48	1.47	1.73 ± 0.48	2.18 ± 0.18	3.32 ± 0.47	5.74 ± 0.72	4.49	5.51	–	–	–
MKHELSSMKAFVILAESSSFNNAAKLLNITQPALTRRIKKMEEDLHVQLFERTTRKVTLTKAGKRLLPEARELIKKFDETLFNIRDMNAYHRGMVTLACIPTAVFYFLPLAIGKFNELYPNIKVRILEQGTNNCMESVLCNESDFGINMNNVTNSSIDFTPLVNEPFVLACRRDHPLAKKQLVEWQELVGYKMIGVRSSSGNRLLIEQQLADKPWKLDWFYEVRHLSTSLGLVEAGLGISALPGLAMPHAPYSSIIGIPLVEPVIRRTLGIIRRKDAVLSPAAERFFALLINLWTDDKDNLWTNIVERQRHALQEIG	3.61	–	–	–	–	–	–	–	–	–	–	–
MKYQQLENLESGWKWKYLVKKHREGELITRYIEASAAQEAVDVLLSLENEPVLVNGWIDKHMNPELVNRMKQTIRARRKRHFNAEHQHTRKKSIDLEFIVWQRLAGLAQRRGKTLSETIVQLIEDAENKEKYANKMSSLKQDLQALLGKE [P0A8N0]	–	5.544 ± 0.014	4.69 ± 0.85	4.27 ± 1.1	3.13 ± 0.038	5.74 ± 0.2	10.9 ± 5.6	10.7 ± 5.8	9.592 ± 0.066	5.46 ± 0.53	3.21 ± 1.6	–
MDAKQTRQGVLLALAAYFIWGIAPAYFKLIYYVPADEILTHRVIWSFFFMVVLMSICRQWSYLKTLIQTPQKIFMLAVSAVLIGGNWLLFIWAVNNHHMLEASLGYFINPLVNIVLGMIFLGERFRRMQWLAVILAICGVLVQLWTFGSLPIIALGLAFSFAFYGLVRKKIAVEAQTGMLIETMWLLPVAAIYLFAIADSSTSHMGQNPMSLNLLLIAAGIVTTVPLLCFTAAATRLRLSTLGFFQYIGPTLMFLLAVTFYGEKPGADKMVTFAFIWVALAIFVMDAIYTQRRTSK	–	–	–	–	–	–	–	7.87	–	–	–	–
MFDFSKVVDRHGTWCTQWDYVADRFGTADLLPFTISDMDFATAPCIIEALNQRLMHGVFGYSRWKNDEFLAAIAHWFSTQHYTAIDSQTVVYGPSVIYMVSELIRQWSETGEGVVIHTPAYDAFYKAIEGNQRTVMPVALEKQADGWFCDMGKLEAVLAKPECKIMLLCSPQNPTGKVWTCDELEIMADLCERHGVRVISDEIHMDMVWGEQPHIPWSNVARGDWALLTSGSKSFNIPALTGAYGIIENSSSRDAYLSALKGRDGLSSPSVLALTAHIAAYQQGAPWLDALRIYLKDNLTYIADKMNAAFPELNWQIPQSTYLAWLDLRPLNIDDNALQKALIEQEKVAIMPGYTYGEEGRGFVRLNAGCPRSKLEKGVAGLINAIRAVR	5.24 ± 1.1	4.66 ± 0.39	4.58 ± 0.52	4.53 ± 0.058	3.15 ± 0.095	5.26 ± 0.26	10.2 ± 2	7.95 ± 0.93	11 ± 1.4	5.26 ± 0.077	4.39 ± 0.095	5.78 ± 0.25
MKRAVVVFSGGQDSTTCLVQALQQYDEVHCVTFDYGQRHRAEIDVARELALKLGARAHKVLDVTLLNELAVSSLTRDSIPVPDYEPEADGIPNTFVPGRNILFLTLAAIYAYQVKAEAVITGVCETDFSGYPDCRDEFVKALNHAVSLGMAKDIRFETPLMWIDKAETWALADYYGKLDLVRNETLTCYNGFKGDGCGHCAACNLRANGLNHYLADKPTVMAAMKQKTGLR	4.91 ± 0.072	4.53 ± 0.16	4.47 ± 0.14	3.87 ± 0.57	2.6 ± 0.17	5.36 ± 0.46	9.333 ± 0.044	7.72 ± 0.73	12.4 ± 1.3	5.02 ± 0.59	4.84 ± 0.59	–
MSKIVKIIGREIIDSRGNPTVEAEVHLEGGFVGMAAAPSGASTGSREALELRDGDKSRFLGKGVTKAVAAVNGPIAQALIGKDAKDQAGIDKIMIDLDGTENKSKFGANAILAVSLANAKAAAAAKGMPLYEHIAELNGTPGKYSMPVPMMNIINGGEHADNNVDIQEFMIQPVGAKTVKEAIRMGSEVFHHLAKVLKAKGMNTAVGDEGGYAPNLGSNAEALAVIAEAVKAAGYELGKDITLAMDCAASEFYKDGKYVLAGEGNKAFTSEEFTHFLEELTKQYPIVSIEDGLDESDWDGFAYQTKVLGDKIQLVGDDLFVTNTKILKEGIEKGIANSILIKFNQIGSLTETLAAIKMAKDAGYTAVISHRSGETEDATIADLAVGTAAGQIKTGSMSRSDRVAKYNQLIRIEEALGEKAPYNGRKEIKGQA [P0A6P9]	5.56 ± 0.57	5.57 ± 0.75	4.86 ± 0.065	4.634 ± 0.024	3.19 ± 0.15	5.95 ± 0.21	12.831 ± 0.01	8.35 ± 0.29	11.3 ± 0.84	4.95 ± 0.37	5.06 ± 0.19	5.52 ± 0.69
MHAYLHCLSHSPLVGYVDPAQEVLDEVNGVIASARERIAAFSPELVVLFAPDHYNGFFYDVMPPFCLGVGATAIGDFGSAAGELPVPVELAEACAHAVMKSGIDLAVSYCMQVDHGFAQPLEFLLGGLDKVPVLPVFINGVATPLPGFQRTRMLGEAIGRFTSTLNKRVLFLGSGGLSHQPPVPELAKADAHMRDRLLGSGKDLPASERELRQQRVISAAEKFVEDQRTLHPLNPIWDNQFMTLLEQGRIQELDAVSNEELSAIAGKSTHEIKTWVAAFAAISAFGNWRSEGRYYRPIPEWIAGFGSLSARTEN [P0ABR9]	5.32	–	–	–	–	–	–	–	–	–	–	–
MFRRRGVTLTKALLTAVCMLAAPLTQAISVGNLTFSLPSETDFVSKRVVNNNKSARIYRIAISAIDSPGSSELRTRPVDGELLFAPRQLALQAGESEYFKFYYHGPRDNRERYYRVSFREVPTRNHTRRSPTGGVVSTEPVVVMDTILVVRPRQVQFKWSFDKVTGTVSNTGNTWFKLLIKPGCDSTEEEGDAWYLRPGDVVHQPELRQPGNHYLVYNDKFIKISDSCPAKPPSAD	4.58	4.57 ± 0.28	3.66	4.89 ± 0.82	2.51 ± 0.53	3.37	9.74	6.84	9.993 ± 0.096	4.37	3.84	–
MTWEYALIGLVVGIIIGAVAMRFGNRKLRQQQALQYELEKNKAELDEYREELVSHFARSAELLDTMAHDYRQLYQHMAKSSSSLLPELSAEANPFRNRLAESEASNDQAPVQMPRDYSEGASGLLRTGAKRD [P0ADW3]	6.13 ± 0.15	5.58 ± 0.45	5.63 ± 0.57	5.84 ± 0.37	3.33 ± 0.31	6.4 ± 0.23	12.4 ± 2.7	11.7 ± 0.66	12.5 ± 1.1	5.76 ± 0.067	5.78 ± 0.092	5.43 ± 0.44
